These results are taken from article PMC7785020, “A unique hormonal recognition feature of the human glucagon-like peptide-2 receptor” (Cell Research, 2020).

Where a chain is given by its changes, count along the chain named.

Assay [1] has as its target Human GLP-2R WT (1–553) (human) (UniProt O95838).
Assay [2] has as its target GLP-2R W249^ECL1A (human) (UniProt O95838).
Assay [3] addresses GLP-2R (1-553) (WT) (human) (UniProt O95838).
Assay [4] has as its target T1, GLP-2R R242(ECL1)A (human) (UniProt O95838).
T1 sequence: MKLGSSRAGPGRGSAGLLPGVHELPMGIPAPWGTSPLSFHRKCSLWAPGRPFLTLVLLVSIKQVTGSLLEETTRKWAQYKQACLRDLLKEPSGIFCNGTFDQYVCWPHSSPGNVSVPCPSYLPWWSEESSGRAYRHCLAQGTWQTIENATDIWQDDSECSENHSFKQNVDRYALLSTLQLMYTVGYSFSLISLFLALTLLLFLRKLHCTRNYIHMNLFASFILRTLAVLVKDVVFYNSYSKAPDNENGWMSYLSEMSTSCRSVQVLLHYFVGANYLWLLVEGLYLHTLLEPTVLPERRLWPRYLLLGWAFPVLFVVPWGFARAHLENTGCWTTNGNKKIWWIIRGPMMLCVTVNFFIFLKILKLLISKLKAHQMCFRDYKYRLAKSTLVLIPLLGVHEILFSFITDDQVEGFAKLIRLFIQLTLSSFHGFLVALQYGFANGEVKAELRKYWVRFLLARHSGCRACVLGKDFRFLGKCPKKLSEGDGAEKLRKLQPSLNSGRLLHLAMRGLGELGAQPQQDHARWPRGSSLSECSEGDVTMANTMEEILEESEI

Assay [5] addresses T2, GLP-2R Y252(ECL1)A (human) (UniProt O95838).
T2 sequence: T1 sequence with A242R, Y252A

Assay [6] has as its target GLP-2R R242(ECL1)E (human) (UniProt O95838).
In assay [7] the target is GLP-2R W249^ECL1A (human) (UniProt O95838). This is another data set of the same source.
Assay [8] addresses GLP-2R (1-553) (WT) (human) (UniProt O95838). The source holds these as a separate data set.
The target of assay [9] is T1, GLP-2R R242(ECL1)A (human). This is another data set of the same source.
Assay [10] concerns the target T2, GLP-2R Y252(ECL1)A (human). This is another data set of the same source.
Assay [11] deals with GLP-2R R242(ECL1)E (human) (UniProt O95838). The source holds these as a separate data set.
A further assay concerns GLP-2R. Conditions: cited from earlier work. From the text:
Consistently, the truncated metabolite GLP-2(3–33) acts as a part ...

The target of a further assay is T3, GLP-2R Y252^ECL1A (Homo sapiens, UniProt O95838, Y252A).
T3 sequence (O95838 1-553 Y252A): T1 sequence with A242R, Y252A
Put plainly: cAMP accumulation, Y252^ECL1A. The format is cell-based. Also noted: WT (1–553); expressed in transfected cells; HEK 293T (cAMP). The method, then: (§1) They were seeded onto 6-well cell culture plates and transiently transfected with different GLP-2R constructs using Lipofectamine 2000 transfection reagent (Invitrogen, Carlsbad, CA, USA). After 24 h, the transfected cells were seeded onto 384-well microtiter plates (3000 cells per well) in HBSS supplemented with 5 mM HEPES, 0.1% (w/v) bovine serum albumin (BSA) and 0.5 mM 3-isobutyl-1- methylxanthine, and stimulated with increasing concentrations of GLP-2 for 30 min at RT. Eu and Ulight were diluted by cAMP detection buffer and added to the plates separately to terminate the reaction. Plates were incubated at RT for 60 min before measuring the fluorescence intensity at 620 nm and […] by an EnVision multilabel plate reader (PerkinElmer, Boston, USA).

Another assay has as its target T4, GLP-2R W249^ECL1A (Homo sapiens, UniProt O95838, W249A).
T4 sequence (O95838 1-553 W249A): T1 sequence with A242R, W249A
As to the kind of experiment: cAMP accumulation, W249^ECL1A. The format is cell-based. Further details: WT (1–553); expressed in transfected cells; HEK 293T (cAMP). The method, then: as §1

The next assay concerns the target T5, GLP-2R R242^ECL1E (Homo sapiens, UniProt O95838, R242E).
T5 sequence (O95838 1-553 R242E): T1 sequence with A242E
As to the kind of experiment: cAMP accumulation, R242^ECL1E. Type of assay: cell-based. Also noted: WT (1–553); expressed in transfected cells; HEK 293T (cAMP). On the procedure:
as §1

The target in the next assay is GLP-1R (WT) (Homo sapiens, UniProt P43220).
Sequence of GLP-1R (WT) (P43220 24-463): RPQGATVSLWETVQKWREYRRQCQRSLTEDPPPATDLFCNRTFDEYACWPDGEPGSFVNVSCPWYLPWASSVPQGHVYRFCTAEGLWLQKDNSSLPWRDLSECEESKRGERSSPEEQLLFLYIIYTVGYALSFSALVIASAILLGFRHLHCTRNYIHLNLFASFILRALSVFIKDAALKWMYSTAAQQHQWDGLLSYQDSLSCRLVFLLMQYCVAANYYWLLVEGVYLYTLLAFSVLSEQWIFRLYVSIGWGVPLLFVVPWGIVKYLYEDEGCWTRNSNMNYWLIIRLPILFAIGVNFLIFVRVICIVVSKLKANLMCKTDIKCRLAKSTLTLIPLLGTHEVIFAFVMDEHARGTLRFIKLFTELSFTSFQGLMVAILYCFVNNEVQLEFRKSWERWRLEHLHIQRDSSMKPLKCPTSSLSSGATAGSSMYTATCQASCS

In the case of chimeric GLP-2/GLP-1(20–33) (peptide), in assay [1], the peptide-induced cAMP accumulation for GLP-2R: fold reduction of potency worked out at 17 fold.

For Human GLP-2(1-33) (peptide), the Table S3: pEC50 of GLP-2-induced cAMP accumulation, HEK 293T cells transfected with the receptor mutant is 7.2 -log M in assay [2], 9.8 -log M in assay [4], 9.8 -log M in assay [5] and 9.1 -log M in assay [6]. In assay [3], the Table S3: pEC50 of GLP-2-induced cAMP accumulation, HEK 293T cells transfected with the receptor (wild-type reference of the table) was 10.4 -log M. Besides, the Table S5: pEC50 of GLP-2(1-33)-induced cAMP accumulation, cells transfected with the receptor mutant was 7.4 -log M in [7], 9.9 -log M in [9], 10.1 -log M in [10] and 9.6 -log M in assay [11]. For the same molecule, in assay [8], the Table S5: pEC50 of GLP-2(1-33)-induced cAMP accumulation, cells transfected with the receptor (wild-type reference of the table) is 10.8 -log M.

Consider “GLP-2(3–33): truncated metabolite of GLP-2, partial agonist (DGSFSDEMNTILDNLAARDFINWLIQTKITD; Glucagon-like peptide 2; UniProt P01275 148-178, looked up, fragment)”, for which, in the assay on GLP-2R (GLP-2R), the “type of agonism (in words)” value is listed as “partial agonist”. Further, in the assay with GLP-2R (vs GLP-2), the “reduction in binding affinity (in words)” value was “great reduction in binding affinity”; the “reduction in potency (in words)” value is “great reduction in binding affinity and potency”.

`CC[C@H](C)[C@H](NC(=O)[C@H](Cc1ccccc1)NC(=O)[C@H](CCC(=O)O)NC(=O)[C@H](CCCCN)NC(=O)[C@H](C)NC(=O)[C@H](C)NC(=O)[C@H](CCC(N)=O)NC(=O)CNC(=O)[C@H](CCC(=O)O)NC(=O)[C@H](CC(C)C)NC(=O)[C@H](Cc1ccc(O)cc1)NC(=O)[C@H](CO)NC(=O)[C@H](CO)NC(=O)[C@@H](NC(=O)[C@H](CC(=O)O)NC(=O)[C@H](CO)NC(=O)[C@@H](NC(=O)[C@H](Cc1ccccc1)NC(=O)[C@@H](NC(=O)CNC(=O)[C@H](CCC(=O)O)NC(=O)[C@H](C)NC(=O)[C@@H](N)Cc1c[nH]cn1)[C@@H](C)O)[C@@H](C)O)C(C)C)C(=O)N[C@@H](C)C(=O)N[C@@H](Cc1c[nH]c2ccccc12)C(=O)N[C@@H](CC(C)C)C(=O)N[C@H](C(=O)N[C@@H](CCCCN)C(=O)NCC(=O)N[C@@H](CCCNC(=N)N)C(=O)NCC(=O)O)C(C)C` [GLP-1(1-31)]: the EC50 was 0.631 nM at GLP-2R Y252^ECL1A, 2.51 nM at GLP-2R W249^ECL1A and 2.51 nM on GLP-2R R242^ECL1E. In addition, the Emax on GLP-2R Y252^ECL1A (HEK-293T, Table S5, Y252A, HEK 293T, 30 min, RT, mean ± SEM, n ≥ 3 in duplicate, read-out: cAMP Emax (% WT)) is -0.7 ± 1.1%; at GLP-2R W249^ECL1A (HEK-293T, Table S5, W249A, HEK 293T, 30 min, RT, mean ± SEM, n ≥ 3 in duplicate, read-out: cAMP Emax (% WT)) it was -2.4 ± 0.7%; on GLP-2R R242^ECL1E (HEK-293T, Table S5, R242E, HEK 293T, 30 min, RT, mean ± SEM, n ≥ 3 in duplicate, read-out: cAMP Emax (% WT)) it was -2.2 ± 0.9%.

With chimeric GLP-2/GLP-1(1–6) (peptide), the peptide-induced cAMP accumulation for GLP-2R: fold decrease against native GLP-2 in assay [1] was determined as 12 fold.

B1: chimeric GLP-2/GLP-1(7-19) (peptide)
peptide: HADGSFTSDVSSYLEGQAARDFINWLIQTKITD
Turning to B1, the Table S5: pEC50 of cAMP accumulation induced by the chimeric peptide (7-19), cells transfected with GLP-2R (WT) in assay [8] is 8.5 -log M. The Table S5: pEC50 of cAMP accumulation induced by the chimeric peptide (7-19), cells transfected with GLP-1R (WT) in the assay with GLP-1R (WT) was 10.9 -log M.
